Experimental data published in publication PMC3906981.

Target: HA-tagged PAK2 (p21 protein (Cdc42/Rac)-activated kinase) (UniProt Q13177)
Test: co-immunoprecipitation (anti-AU1) with in vitro kinase assay, densitometric quantification
Design: reference not given here
Settings: cells transfected with Nef, CDC42V12 and PAK2-HA

Chain of UniProt Q13177 (Q13177 whole entry): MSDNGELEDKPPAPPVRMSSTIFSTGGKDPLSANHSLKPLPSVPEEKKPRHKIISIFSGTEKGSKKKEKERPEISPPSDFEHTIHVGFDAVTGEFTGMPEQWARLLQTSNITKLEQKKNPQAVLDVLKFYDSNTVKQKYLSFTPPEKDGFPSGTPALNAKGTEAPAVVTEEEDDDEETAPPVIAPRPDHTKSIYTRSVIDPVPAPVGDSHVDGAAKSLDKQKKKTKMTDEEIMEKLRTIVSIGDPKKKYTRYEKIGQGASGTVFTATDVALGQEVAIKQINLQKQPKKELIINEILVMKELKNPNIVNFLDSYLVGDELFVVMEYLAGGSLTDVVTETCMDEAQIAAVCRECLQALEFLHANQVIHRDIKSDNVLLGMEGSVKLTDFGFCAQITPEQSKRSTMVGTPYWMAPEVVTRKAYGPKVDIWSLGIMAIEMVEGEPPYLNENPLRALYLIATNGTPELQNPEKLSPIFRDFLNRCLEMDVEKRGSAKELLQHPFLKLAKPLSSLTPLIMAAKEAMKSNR

Substance | response (parent: 114) | response (parent: 160)
AU1-tagged SIVblu Nef, wild-type R129A; R130A | 0 | –
AU1-tagged SIVmac239 Nef, wild-type H121R | – | 23
AU1-tagged SIVmac239 Nef, wild-type H121R; Y221R | – | 0
AU1-tagged SIVmac239 Nef, wild-type P104A | – | 123
AU1-tagged SIVmac239 Nef, wild-type P104A; P107A | – | 34
AU1-tagged SIVmac239 Nef, wild-type P107A | – | 59
AU1-tagged SIVmac239 Nef, wild-type Y221R | – | 26
